# Test results: article PMC4658703
# Read-outs that look alike come from different tables or passages of the source.
# Key:
# Test in all cases: SPR
# [1] = molecular target: Echidna IGF2 (peak 2), purified recombinant (echidna)
# Human IGF2 (human) [2] = molecular target: Human IGF2 (human)
# Human IGF2 (human) [3] = molecular target: Human IGF2 (human); remark: listed apart in the source
# [4] = molecular target: Echidna IGF2 (peak 2), purified recombinant (echidna); remark: listed apart in the source
# Human IGF2 (human) [5] = molecular target: Human IGF2 (human); remark: listed apart in the source
# [6] = molecular target: Echidna IGF2 (peak 2), purified recombinant (echidna); remark: listed apart in the source
# Chicken IGF2 (chicken) [7] = molecular target: Chicken IGF2 (chicken) (UniProt P33717)
# Chicken IGF2 (chicken) [8] = molecular target: Chicken IGF2 (chicken) (UniProt P33717); remark: listed apart in the source
# Chicken IGF2 (chicken), sequence (P33717 24-91): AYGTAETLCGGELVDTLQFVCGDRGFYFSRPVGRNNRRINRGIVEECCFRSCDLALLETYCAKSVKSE
# Human IGF2R domain 11 (wild type), sequence (P11717 1508-1650): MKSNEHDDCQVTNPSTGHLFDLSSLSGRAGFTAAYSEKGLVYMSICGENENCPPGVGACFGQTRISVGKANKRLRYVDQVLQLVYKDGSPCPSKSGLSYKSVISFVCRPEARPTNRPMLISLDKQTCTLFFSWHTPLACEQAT
Substance,Kd [1],Kd (Human IGF2 (human) [2]),Kd (Human IGF2 (human) [3]),Kd [4],Kd (Human IGF2 (human) [5]),Kd [6],"kd1 (two state model, first step) [6]","ka1 (two state model, first step) (Human IGF2 (human) [3])","kd1 (two state model, first step) (Human IGF2 (human) [3])",Kd (Chicken IGF2 (chicken) [7]),Kd (Chicken IGF2 (chicken) [8]),"ka1 (two state model, first step) (Chicken IGF2 (chicken) [8])","kd1 (two state model, first step) (Chicken IGF2 (chicken) [8])"
Chicken IGF2R domain 11 with echidna CD loop (domain or fragment),328 nM,325 nM,427 nM,,,,,,,,,,
Human IGF2R domain 11 (wild type) (from UniProt P11717 1508-1650) (domain or fragment),,,46 nM,77 nM,64 nM,53 nM,0.106 s⁻¹,5e+06 m^-1 s^-1,0.23 s⁻¹,,,,
Opossum IGF2R domain 11 (domain or fragment),,,130 nM,157 nM,164 nM,135 nM,0.106 s⁻¹,,0.108 s⁻¹,219 nM,171 nM,1.76e+06 m^-1 s^-1,
"Human IGF2R domain 11^(E1544K, K1545S, L1547V) (clone E4) (from UniProt P11717 1508-1650) (domain or fragment)",,,15.3 nM,,15.5 nM,,,2.76e+06 m^-1 s^-1,0.044 s⁻¹,,,,
Echidna IGF2R domain 11 (domain or fragment),,,244 nM,385 nM,329 nM,256 nM,0.138 s⁻¹,,0.106 s⁻¹,412 nM,244 nM,,0.259 s⁻¹
